Where “and” joins values, the source holds several entries; their conditions need not be identical. Equal values may be shown once. Numbered stars: 1 amine (or outer) side, 2 acyl side, 3 side chain; on linkers, the order of the positions; unused ones are H or OH. Bridge positions count the residues as written; N and C are the ends. Square brackets hold non-standard residues; d marks the D form. NH(CH2)9CO = O=C(CCCCCCCCCN[*:1])[*:2]; NH(CH2)8CO = O=C(CCCCCCCCN[*:1])[*:2]; Cit = NC(=O)NCCC[C@H](N)C(=O)O; Aun = NCCCCCCCCCCC(=O)O; Aoc = NCCCCCCCC(=O)O; Ava = NCCCCC(=O)O

In test [1] the target is T1, His-tagged, full-length PCSK9 (human, UniProt Q8NBP7 31-692).
T1 construct: secreted PCSK9 is autocatalytically cleaved into prodomain and catalytic domain + CRD (from S153), which stay associated; also called His-PCSK9; proprotein convertase subtilisin/kexin type 9; not shown: His tag
Kind of test: TR-FRET competition (PCSK9/EGF(A) assay); competitor EGF(A)-Fc.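 Also: proximity signal from anti-His APC on PCSK9 paired with anti-Fc europium on the Fc ligand, read as normalized TR-FRET ratio across compound dilutions.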 A general note: In TR-FRET formats the signal depends on donor and acceptor labels being close together.

The next test has as its target T2, His-tagged PCSK9Δhelix (human, UniProt Q8NBP7 31-152; Q8NBP7 168-692).
T2 construct: Human PCSK9 M1-Q692 with an engineered TEV site, cut by TEV protease; new N-terminus of the catalytic domain is S-A168; also called His-PCSK9Δhelix; not shown: His tag
Kind of test: TR-FRET competition (PCSK9Δhelix/Ab20 assay); competitor Ab20.

T2 sequence (Q8NBP7 31-152, stated change not applied, chain 1 of 2): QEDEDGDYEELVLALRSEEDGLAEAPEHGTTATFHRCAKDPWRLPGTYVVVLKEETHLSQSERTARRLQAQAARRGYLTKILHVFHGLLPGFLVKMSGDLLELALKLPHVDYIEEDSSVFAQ
T2 sequence (Q8NBP7 other isoform, or with tags, fused parts or gaps mutant, chain 2 of 2): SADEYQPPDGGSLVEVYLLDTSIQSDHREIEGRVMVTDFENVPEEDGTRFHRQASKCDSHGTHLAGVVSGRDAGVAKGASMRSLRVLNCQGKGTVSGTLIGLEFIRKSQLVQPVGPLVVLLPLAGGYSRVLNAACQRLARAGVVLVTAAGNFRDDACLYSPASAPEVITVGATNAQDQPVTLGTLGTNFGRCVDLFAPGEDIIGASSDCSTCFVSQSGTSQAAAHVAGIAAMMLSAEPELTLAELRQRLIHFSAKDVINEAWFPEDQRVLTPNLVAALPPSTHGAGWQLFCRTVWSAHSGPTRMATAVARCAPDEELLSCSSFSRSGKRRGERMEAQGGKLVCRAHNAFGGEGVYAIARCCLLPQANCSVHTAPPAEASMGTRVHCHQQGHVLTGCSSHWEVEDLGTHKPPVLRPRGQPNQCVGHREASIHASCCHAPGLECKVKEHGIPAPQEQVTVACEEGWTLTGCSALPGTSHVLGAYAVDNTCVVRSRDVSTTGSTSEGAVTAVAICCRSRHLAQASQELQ
T1 sequence (Q8NBP7 31-692 limits assumed): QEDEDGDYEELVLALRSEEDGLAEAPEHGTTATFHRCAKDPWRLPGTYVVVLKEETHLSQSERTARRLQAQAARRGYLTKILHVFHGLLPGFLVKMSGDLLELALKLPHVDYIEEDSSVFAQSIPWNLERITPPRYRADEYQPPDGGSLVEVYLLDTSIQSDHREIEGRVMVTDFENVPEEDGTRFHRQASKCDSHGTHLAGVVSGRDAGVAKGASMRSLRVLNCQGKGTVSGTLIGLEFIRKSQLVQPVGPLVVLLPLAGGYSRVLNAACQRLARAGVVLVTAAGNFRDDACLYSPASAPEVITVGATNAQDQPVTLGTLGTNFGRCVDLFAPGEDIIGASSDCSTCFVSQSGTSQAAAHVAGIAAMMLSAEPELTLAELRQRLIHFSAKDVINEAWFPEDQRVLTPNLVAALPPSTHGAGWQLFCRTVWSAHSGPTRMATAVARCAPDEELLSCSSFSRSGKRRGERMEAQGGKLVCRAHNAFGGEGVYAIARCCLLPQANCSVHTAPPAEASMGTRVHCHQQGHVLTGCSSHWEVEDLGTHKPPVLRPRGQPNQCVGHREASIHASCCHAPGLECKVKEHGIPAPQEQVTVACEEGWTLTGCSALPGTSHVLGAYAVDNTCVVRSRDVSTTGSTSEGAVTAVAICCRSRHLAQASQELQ
Procedure for His-tagged PCSK9Δhelix: Signal generation in the PCSK9 binding assays was dependent upon the binding interaction to bring into close proximity the His-tag on the PCSK9 and the Fc-tag on the ligand. Anti-His-APC was bound to the His-tag, and anti-Fc-europium was bound to the Fc-tag.
Compounds were solubilized and dilutions were prepared in DMSO. […] The plate was centrifuged to mix the well contents and allowed to incubate for 30 min. […] The normalized TR-FRET ratios were plotted as a function of the compound concentrations, and the IC₅₀ values were determined using a 4-parameter logistic regression.

B1: Compound 36 (Ac-SG-CFIPWNLQ(Cit)IGLPC-NH2) (peptide)
peptide: Ac-SGCFIPWNLQ[Cit]IGLPC-NH2
modifications: disulfide 3-16
SMILES: CC[C@H](C)[C@@H]1NC(=O)[C@H](CCCNC(N)=O)NC(=O)[C@H](CCC(N)=O)NC(=O)[C@H](CC(C)C)NC(=O)[C@H](CC(N)=O)NC(=O)[C@H](Cc2c[nH]c3ccccc23)NC(=O)[C@@H]2CCCN2C(=O)[C@H]([C@@H](C)CC)NC(=O)[C@H](Cc2ccccc2)NC(=O)[C@@H](NC(=O)CNC(=O)[C@H](CO)NC(C)=O)CSSC[C@@H](C(N)=O)NC(=O)[C@@H]2CCCN2C(=O)[C@H](CC(C)C)NC(=O)CNC1=O
A word on the IC50: it is the concentration that gives 50% inhibition. Lower therefore signals greater potency in that assay. In test [1], B1 returned an IC50 greater than 50 µM.

B2: Compound 85 (Ac-CRLPWNLQR-(Ano)-C-NH2) (peptide)
peptide: Ac-CRLPWNLQR[NH(CH2)8CO]C-NH2
modifications: disulfide 1-11
SMILES: CC(=O)N[C@H]1CSSC[C@@H](C(N)=O)NC(=O)CCCCCCCCNC(=O)[C@H](CCCNC(=N)N)NC(=O)[C@H](CCC(N)=O)NC(=O)[C@H](CC(C)C)NC(=O)[C@H](CC(N)=O)NC(=O)[C@H](Cc2c[nH]c3ccccc23)NC(=O)[C@@H]2CCCN2C(=O)[C@H](CC(C)C)NC(=O)[C@H](CCCNC(=N)N)NC1=O
In turn, B2 registered an IC50 in test [1] greater than 50 µM.

B3: Compound 115 (Ac-CRLPWNLQRI-(Ape)-C-NH2) (peptide)
peptide: Ac-CRLPWNLQRI[Ava]C-NH2
modifications: disulfide 1-12
SMILES: CC[C@H](C)[C@@H]1NC(=O)[C@H](CCCNC(=N)N)NC(=O)[C@H](CCC(N)=O)NC(=O)[C@H](CC(C)C)NC(=O)[C@H](CC(N)=O)NC(=O)[C@H](Cc2c[nH]c3ccccc23)NC(=O)[C@@H]2CCCN2C(=O)[C@H](CC(C)C)NC(=O)[C@H](CCCNC(=N)N)NC(=O)[C@@H](NC(C)=O)CSSC[C@@H](C(N)=O)NC(=O)CCCCNC1=O
In test [1], B3 gave an IC50 greater than 50 µM.

B4: Compound 83 (Ac-CRLPWNLQR-(Aun)-C-NH2) (peptide)
peptide: Ac-CRLPWNLQR[Aun]C-NH2
modifications: disulfide 1-11
SMILES: CC(=O)N[C@H]1CSSC[C@@H](C(N)=O)NC(=O)CCCCCCCCCCNC(=O)[C@H](CCCNC(=N)N)NC(=O)[C@H](CCC(N)=O)NC(=O)[C@H](CC(C)C)NC(=O)[C@H](CC(N)=O)NC(=O)[C@H](Cc2c[nH]c3ccccc23)NC(=O)[C@@H]2CCCN2C(=O)[C@H](CC(C)C)NC(=O)[C@H](CCCNC(=N)N)NC1=O
The molecule B4 came in with an IC50 in test [1] greater than 50 µM.

B5: Compound 107 (Ac-CRLpWNLQRIGLPC-NH2) (peptide)
peptide: Ac-CRL[dP]WNLQRIGLPC-NH2
modifications: disulfide 1-14
SMILES: CC[C@H](C)[C@@H]1NC(=O)[C@H](CCCNC(=N)N)NC(=O)[C@H](CCC(N)=O)NC(=O)[C@H](CC(C)C)NC(=O)[C@H](CC(N)=O)NC(=O)[C@H](Cc2c[nH]c3ccccc23)NC(=O)[C@H]2CCCN2C(=O)[C@H](CC(C)C)NC(=O)[C@H](CCCNC(=N)N)NC(=O)[C@@H](NC(C)=O)CSSC[C@@H](C(N)=O)NC(=O)[C@@H]2CCCN2C(=O)[C@H](CC(C)C)NC(=O)CNC1=O
For the molecule B5, in test [1], the IC50 was greater than 50 µM.

B6: Compound 22 (Ac-GSG-CWNLKRIGSQGC-NH2) (peptide)
peptide: Ac-GSGCWNLKRIGSQGC-NH2
modifications: disulfide 4-15
SMILES: CC[C@H](C)[C@@H]1NC(=O)[C@H](CCCNC(=N)N)NC(=O)[C@H](CCCCN)NC(=O)[C@H](CC(C)C)NC(=O)[C@H](CC(N)=O)NC(=O)[C@H](Cc2c[nH]c3ccccc23)NC(=O)[C@@H](NC(=O)CNC(=O)[C@H](CO)NC(=O)CNC(C)=O)CSSC[C@@H](C(N)=O)NC(=O)CNC(=O)[C@H](CCC(N)=O)NC(=O)[C@H](CO)NC(=O)CNC1=O
B6: the IC50 in test [1] is 42 µM and > 50 µM.

B7: Compound 106 (Ac-CRLPwNLQRIGLPC-NH2) (peptide)
peptide: Ac-CRLP[dW]NLQRIGLPC-NH2
modifications: disulfide 1-14
SMILES: CC[C@H](C)[C@@H]1NC(=O)[C@H](CCCNC(=N)N)NC(=O)[C@H](CCC(N)=O)NC(=O)[C@H](CC(C)C)NC(=O)[C@H](CC(N)=O)NC(=O)[C@@H](Cc2c[nH]c3ccccc23)NC(=O)[C@@H]2CCCN2C(=O)[C@H](CC(C)C)NC(=O)[C@H](CCCNC(=N)N)NC(=O)[C@@H](NC(C)=O)CSSC[C@@H](C(N)=O)NC(=O)[C@@H]2CCCN2C(=O)[C@H](CC(C)C)NC(=O)CNC1=O
In test [1], B7 had an IC50 greater than 50 µM.

B8: Compound 29 (Ac-SG-CFIPWNLQRIGLLC-NH2) (peptide)
peptide: Ac-SGCFIPWNLQRIGLLC-NH2
modifications: disulfide 3-16
SMILES: CC[C@H](C)[C@@H]1NC(=O)[C@H](CCCNC(=N)N)NC(=O)[C@H](CCC(N)=O)NC(=O)[C@H](CC(C)C)NC(=O)[C@H](CC(N)=O)NC(=O)[C@H](Cc2c[nH]c3ccccc23)NC(=O)[C@@H]2CCCN2C(=O)[C@H]([C@@H](C)CC)NC(=O)[C@H](Cc2ccccc2)NC(=O)[C@@H](NC(=O)CNC(=O)[C@H](CO)NC(C)=O)CSSC[C@@H](C(N)=O)NC(=O)[C@H](CC(C)C)NC(=O)[C@H](CC(C)C)NC(=O)CNC1=O
In the case of B8, the IC50 with His-tagged PCSK9Δhelix was 1.9 µM; in test [1], greater than 50 µM.

B9: Compound 31 (Ac-CFIPWNLQRIGLLC-NH2) (peptide)
peptide: Ac-CFIPWNLQRIGLLC-NH2
modifications: disulfide 1-14
SMILES: CC[C@H](C)[C@@H]1NC(=O)[C@H](CCCNC(=N)N)NC(=O)[C@H](CCC(N)=O)NC(=O)[C@H](CC(C)C)NC(=O)[C@H](CC(N)=O)NC(=O)[C@H](Cc2c[nH]c3ccccc23)NC(=O)[C@@H]2CCCN2C(=O)[C@H]([C@@H](C)CC)NC(=O)[C@H](Cc2ccccc2)NC(=O)[C@@H](NC(C)=O)CSSC[C@@H](C(N)=O)NC(=O)[C@H](CC(C)C)NC(=O)[C@H](CC(C)C)NC(=O)CNC1=O
Turning to B9, the IC50 was 2.4 µM with His-tagged PCSK9Δhelix and greater than 50 µM in test [1].

B10: Compound 21 (Ac-CWNLKRIGSQGC-NH2) (peptide)
peptide: Ac-CWNLKRIGSQGC-NH2
modifications: disulfide 1-12
SMILES: CC[C@H](C)[C@@H]1NC(=O)[C@H](CCCNC(=N)N)NC(=O)[C@H](CCCCN)NC(=O)[C@H](CC(C)C)NC(=O)[C@H](CC(N)=O)NC(=O)[C@H](Cc2c[nH]c3ccccc23)NC(=O)[C@@H](NC(C)=O)CSSC[C@@H](C(N)=O)NC(=O)CNC(=O)[C@H](CCC(N)=O)NC(=O)[C@H](CO)NC(=O)CNC1=O
Consider B10, for which the IC50 in test [1] is greater than 50 µM. For Ac-SGCRLPWNLQRIGLPC-NH2 (disulfide 3-16) [Compound 30 (Ac-SG-CRLPWNLQRIGLPC-NH2)], the IC50 was 0.95 µM in the test with His-tagged PCSK9Δhelix and greater than 50 µM in test [1].

B11: Compound 86 (Ac-CRLPWNLQR-(Aoc)-C-NH2) (peptide)
peptide: Ac-CRLPWNLQR[Aoc]C-NH2
modifications: disulfide 1-11
SMILES: CC(=O)N[C@H]1CSSC[C@@H](C(N)=O)NC(=O)CCCCCCCNC(=O)[C@H](CCCNC(=N)N)NC(=O)[C@H](CCC(N)=O)NC(=O)[C@H](CC(C)C)NC(=O)[C@H](CC(N)=O)NC(=O)[C@H](Cc2c[nH]c3ccccc23)NC(=O)[C@@H]2CCCN2C(=O)[C@H](CC(C)C)NC(=O)[C@H](CCCNC(=N)N)NC1=O
Turning to B11, the IC50 in test [1] was greater than 50 µM.

B12: Compound 105 (Ac-CRLPWnLQRIGLPC-NH2) (peptide)
peptide: Ac-CRLPW[dN]LQRIGLPC-NH2
modifications: disulfide 1-14
SMILES: CC[C@H](C)[C@@H]1NC(=O)[C@H](CCCNC(=N)N)NC(=O)[C@H](CCC(N)=O)NC(=O)[C@H](CC(C)C)NC(=O)[C@@H](CC(N)=O)NC(=O)[C@H](Cc2c[nH]c3ccccc23)NC(=O)[C@@H]2CCCN2C(=O)[C@H](CC(C)C)NC(=O)[C@H](CCCNC(=N)N)NC(=O)[C@@H](NC(C)=O)CSSC[C@@H](C(N)=O)NC(=O)[C@@H]2CCCN2C(=O)[C@H](CC(C)C)NC(=O)CNC1=O
Regarding B12, the IC50 in test [1] was greater than 50 µM.

B13: Compound 32 (Ac-CRLPWNLQRIGLPC-NH2) (peptide)
peptide: Ac-CRLPWNLQRIGLPC-NH2
modifications: disulfide 1-14
SMILES: CC[C@H](C)[C@@H]1NC(=O)[C@H](CCCNC(=N)N)NC(=O)[C@H](CCC(N)=O)NC(=O)[C@H](CC(C)C)NC(=O)[C@H](CC(N)=O)NC(=O)[C@H](Cc2c[nH]c3ccccc23)NC(=O)[C@@H]2CCCN2C(=O)[C@H](CC(C)C)NC(=O)[C@H](CCCNC(=N)N)NC(=O)[C@@H](NC(C)=O)CSSC[C@@H](C(N)=O)NC(=O)[C@@H]2CCCN2C(=O)[C@H](CC(C)C)NC(=O)CNC1=O
As to B13, the values for the IC50 (with His-tagged PCSK9Δhelix; in test [1]) were 0.97 µM and greater than 50 µM, respectively.

B14: Compound 67 (Ac-CRLPWNLKRIGLPC-NH2) (peptide)
peptide: Ac-CRLPWNLKRIGLPC-NH2
modifications: disulfide 1-14
SMILES: CC[C@H](C)[C@@H]1NC(=O)[C@H](CCCNC(=N)N)NC(=O)[C@H](CCCCN)NC(=O)[C@H](CC(C)C)NC(=O)[C@H](CC(N)=O)NC(=O)[C@H](Cc2c[nH]c3ccccc23)NC(=O)[C@@H]2CCCN2C(=O)[C@H](CC(C)C)NC(=O)[C@H](CCCNC(=N)N)NC(=O)[C@@H](NC(C)=O)CSSC[C@@H](C(N)=O)NC(=O)[C@@H]2CCCN2C(=O)[C@H](CC(C)C)NC(=O)CNC1=O
On to B14, for which the results for the IC50 (with His-tagged PCSK9Δhelix; in test [1]) were 0.699 µM and greater than 50 µM, respectively.

B15: Compound 84 (Ac-CRLPWNLQR-(Ade)-C-NH2) (peptide)
peptide: Ac-CRLPWNLQR[NH(CH2)9CO]C-NH2
modifications: disulfide 1-11
SMILES: CC(=O)N[C@H]1CSSC[C@@H](C(N)=O)NC(=O)CCCCCCCCCNC(=O)[C@H](CCCNC(=N)N)NC(=O)[C@H](CCC(N)=O)NC(=O)[C@H](CC(C)C)NC(=O)[C@H](CC(N)=O)NC(=O)[C@H](Cc2c[nH]c3ccccc23)NC(=O)[C@@H]2CCCN2C(=O)[C@H](CC(C)C)NC(=O)[C@H](CCCNC(=N)N)NC1=O
In test [1], B15 came in with an IC50 greater than 50 µM.

B16: Compound 64 (Ac-DCLWNLKRIGSQCEY-NH2) (peptide)
peptide: Ac-DCLWNLKRIGSQCEY-NH2
modifications: disulfide 2-13
SMILES: CC[C@H](C)[C@@H]1NC(=O)[C@H](CCCNC(=N)N)NC(=O)[C@H](CCCCN)NC(=O)[C@H](CC(C)C)NC(=O)[C@H](CC(N)=O)NC(=O)[C@H](Cc2c[nH]c3ccccc23)NC(=O)[C@H](CC(C)C)NC(=O)[C@@H](NC(=O)[C@H](CC(=O)O)NC(C)=O)CSSC[C@@H](C(=O)N[C@@H](CCC(=O)O)C(=O)N[C@@H](Cc2ccc(O)cc2)C(N)=O)NC(=O)[C@H](CCC(N)=O)NC(=O)[C@H](CO)NC(=O)CNC1=O
In turn, B16 displayed an IC50 in test [1] greater than 50 µM.

Values taken from patent US20200283478A1 (Genentech, published 2020).
